Measurements reported in patent publication US12065466B2, “Methods and compositions for protein sequencing” (Quantum-Si Incorporated, priority 2020, dated 2024).
Where two headings read alike, the source gives them in different places.

B1: H. sapiens Fyn SH2 domain triple mutant superbinder: SEQ ID NO: 117 (protein, listed as Homo sapiens)
chain: MGAMDSIQAEEWYFGKLGRKDAERQLLSFGNPRGTFLIRESETVKGAYALSIRDWDDMKGDHVKHYLIRKLDNGGYYITTRAQFETLQQLVQHYSERAAGLSSRLVVPSHK
B2: PS704 (protein)
chain: MSDSPVDLKPKPKVKPKLERPKLYKVMLLNDDYTPMSFVTVVLKAVFRMSEDTGRRVMMTAHRFGSAVVVVCERDIAETKAKEATDLGKEAGFPLMFTTEPEEGSAGSAAGSGEFMDKDCEMKRTTLDSPLGKLELSGCEQGLHEIKLLGKGTSAADAVEVPAPAAVLGGPEPLMQATAWLNAYFHQPEAIEEFPVPALHHPVFQQESFTRQVLWKLLKVVKFGEVISYQQLAALAGNPAATAAVKTALSGNPVPILIPCHRVVSSSGAVGGYEGGLAVKEWLLAHEGHRLGKPGLGMDKDCEMKRTTLDSPLGKLELSGCEQGLHEIKLLGKGTSAADAVEVPAPAAVLGGPEPLMQATAWLNAYFHQPEAIEEFPVPALHHPVFQQESFTRQVLWKLLKVVKFGEVISYQQLAALAGNPAATAAVKTALSGNPVPILIPCHRVVSSSGAVGGYEGGLAVKEWLLAHEGHRLGKPGLGGSAGSAAGSGEFHHHHHHHHHHGGGSGGGSGGGSGLNDFFEAQKIEWHEGGGSGGGSGGGSGLNDFFEAQKIEWHE
B3: PS696 (protein)
chain: MPTAASATESAIEDTPAPARPEVDGRTKPKRQPRYHVVLWNDDDHTYQYVVVMLQSLFGHPPERGYRLAKEVDTQGRVIVLTTTREHAELKRDQIHAFGYDRLLARSKGSMKASIEAEEGSAGSAAGSGEFMDKDCEMKRTTLDSPLGKLELSGCEQGLHEIKLLGKGTSAADAVEVPAPAAVLGGPEPLMQATAWLNAYFHQPEAIEEFPVPALHHPVFQQESFTRQVLWKLLKVVKFGEVISYQQLAALAGNPAATAAVKTALSGNPVPILIPCHRVVSSSGAVGGYEGGLAVKEWLLAHEGHRLGKPGLGGSAGSAAGSGEFHHHHHHHHHHGGGSGGGSGGGSGLNDFFEAQKIEWHEGGGSGGGSGGGSGLNDFFEAQKIEWHE
B4: PS637: two copies of PS557 in tandem separated by Linker 1 (protein)
chain: MPTAASATESAIEDTPAPARPEVDGRTKPKRQPRYHVVLWNDDDHTYQYVVVMLQSLFGHPPERGYRLAKEVDTQGRVIVLTTTREHAELKRDQIHAFGYDRLLARSKGSMKASIEAEEGGGSGGGSGGGSGMPTAASATESAIEDTPAPARPEVDGRTKPKRQPRYHVVLWNDDDHTYQYVVVMLQSLFGHPPERGYRLAKEVDTQGRVIVLTTTREHAELKRDQIHAFGYDRLLARSKGSMKASIEAEEGGSHHHHHHHHHHGGGSGGGSGGGSGLNDFFEAQKIEWHEGGGSGGGSGGGSGLNDFFEAQKIEWHE
B5: PS638: two copies of PS557 in tandem separated by Linker 2 (protein)
chain: MPTAASATESAIEDTPAPARPEVDGRTKPKRQPRYHVVLWNDDDHTYQYVVVMLQSLFGHPPERGYRLAKEVDTQGRVIVLTTTREHAELKRDQIHAFGYDRLLARSKGSMKASIEAEEGSAGSAAGSGEFMPTAASATESAIEDTPAPARPEVDGRTKPKRQPRYHVVLWNDDDHTYQYVVVMLQSLFGHPPERGYRLAKEVDTQGRVIVLTTTREHAELKRDQIHAFGYDRLLARSKGSMKASIEAEEGGSHHHHHHHHHHGGGSGGGSGGGSGLNDFFEAQKIEWHEGGGSGGGSGGGSGLNDFFEAQKIEWHE
B6: PS639: two copies of PS557 in tandem separated by Linker 3 (protein)
chain: MPTAASATESAIEDTPAPARPEVDGRTKPKRQPRYHVVLWNDDDHTYQYVVVMLQSLFGHPPERGYRLAKEVDTQGRVIVLTTTREHAELKRDQIHAFGYDRLLARSKGSMKASIEAEEGSAGSAAGSGEFGSAGSAAGSGEFGSAGSAAGSGEFMPTAASATESAIEDTPAPARPEVDGRTKPKRQPRYHVVLWNDDDHTYQYVVVMLQSLFGHPPERGYRLAKEVDTQGRVIVLTTTREHAELKRDQIHAFGYDRLLARSKGSMKASIEAEEGGSHHHHHHHHHHGGGSGGGSGGGSGLNDFFEAQKIEWHEGGGSGGGSGGGSGLNDFFEAQKIEWHE
B7: PS703 (protein)
chain: MSDSPVDLKPKPKVKPKLERPKLYKVMLLNDDYTPMSFVTVVLKAVFRMSEDTGRRVMMTAHRFGSAVVVVCERDIAETKAKEATDLGKEAGFPLMFTTEPEEGSAGSAAGSGEFMDKDCEMKRTTLDSPLGKLELSGCEQGLHEIKLLGKGTSAADAVEVPAPAAVLGGPEPLMQATAWLNAYFHQPEAIEEFPVPALHHPVFQQESFTRQVLWKLLKVVKFGEVISYQQLAALAGNPAATAAVKTALSGNPVPILIPCHRVVSSSGAVGGYEGGLAVKEWLLAHEGHRLGKPGLGGSAGSAAGSGEFHHHHHHHHHHGGGSGGGSGGGSGLNDFFEAQKIEWHEGGGSGGGSGGGSGLNDFFEAQKIEWHE
B8: PS705 (protein)
chain: MSDSPVDLKPKPKVKPKLERPKLYKVMLLNDDYTPMSFVTVVLKAVFRMSEDTGRRVMMTAHRFGSAVVVVCERDIAETKAKEATDLGKEAGFPLMFTTEPEEHHHHHHHHHHGGGSGGGSGGGSGLNDFFEAQKIEWHEGGGSGGGSGGGSGLNDFFEAQKIEWHEGSAGSAAGSGEFMDKDCEMKRTTLDSPLGKLELSGCEQGLHEIKLLGKGTSAADAVEVPAPAAVLGGPEPLMQATAWLNAYFHQPEAIEEFPVPALHHPVFQQESFTRQVLWKLLKVVKFGEVISYQQLAALAGNPAATAAVKTALSGNPVPILIPCHRVVSSSGAVGGYEGGLAVKEWLLAHEGHRLGKPGLG
B9: PS614: polypeptide with two copies of the ClpS binder PS372 oriented in tandem (protein)
chain: MAFPARGKTAPKNEVRRQPPYNVILLNDDDHTYRYVIEMLQKIFGFPPEKGFQIAEEVDRTGRVILLTTSKEHAELKQDQVHSYGPDPYLGRPCSGSMTCVIEPAVGSAGSAAGSGEFMAFPARGKTAPKNEVRRQPPYNVILLNDDDHTYRYVIEMLQKIFGFPPEKGFQIAEEVDRTGRVILLTTSKEHAELKQDQVHSYGPDPYLGRPCSGSMTCVIEPAVGGSHHHHHHHHHHGGGSGGGSGGGSGLNDFFEAQKIEWHEGGGSGGGSGGGSGLNDFFEAQKIEWHE
B10: Synechococcus elongatus ClpS2: ClpS protein, SEQ ID NO: 106 (protein, listed as Synechococcus elongatus)
chain: MSPQPDESVLSILGVPRPCVKKRSRNDAFVLTVLTCSLQAIAAPATAPGTTTTRVRQPYPHFRVIVLDDDVNTFQHVAECLLKYIPGMTGDRAWDLTNQVHYEGAATVWSGPQEQAELYHEQLRREGLTMAPLEAA

Tests used:
[1] = system: amino acid at a terminal position of a polypeptide; settings: Table 2; amino acid identity at a terminal position (phosphotyrosine also internal); inferred from literature and/or demonstrated by the inventors; cited from earlier work
[2] = target: T1, fluorescently-labeled peptide containing N-terminal phospho-tyrosine (Homo sapiens, UniProt P06241, C239S/C240S/C246S/K204L/S186A/T181V); assay: Single-molecule recognition of modified amino acids by immobilized Fyn SH2 variant; type: binding
T1 construct: Src Homology 2 (SH2) domain from Fyn
Experimental: Experiments were performed to evaluate recognition of amino acids containing specific post-translation modifications. […] The variant protein was immobilized to the bottom of sample wells, and single-molecule signal traces were collected upon addition of a fluorescently-labeled peptide containing N-terminal phospho-tyrosine. […] Pulse duration data collected during these experiments is shown in FIG. 22B (top, middle, and bottom plots corresponding to the top, middle, and bottom traces of FIG. 22A, respectively). Pulse duration and interpulse duration statistics are shown in FIG. 22C (top and bottom panels, respectively). Control experiments were performed to confirm that the Fyn protein was specific for the phosphorylated tyrosine. The experiments were repeated for each of three different peptides: a first peptide containing N-terminal unmodified tyrosine (Y; FIG. 22D), a second peptide containing N-terminal and penultimate unmodified tyrosines (YY; FIG. 22E), and a third peptide containing N-terminal phospho-serine (FIG. 22F).

[3] = system: labeled N-terminal FA peptide; assay: Stopped-flow dissociation rate (koff), atClpS2-V1 derivatives; type: binding; settings: excess unlabeled trap peptide
Source text: (§1) To measure the dissociation rate (koff) by stopped-flow, complexes of binder bound to labeled peptide substrate at an optimal concentration were rapidly mixed with excess unlabeled trap peptide. […] The averaged raw traces were fitted with an exponential equation to determine the koff (FIG. 37B, bottom panel).

[4] = system: labeled N-terminal LA peptide; assay: Stopped-flow dissociation rate (koff), PS557 derivatives; type: binding; settings: excess unlabeled trap peptide
Source text: as §1

[5] = system: peptides with different N-terminal amino acids, penultimate alanine; assay: Biolayer interferometry of multivalent amino acid binders; type: binding
Experimental: The amino acid binding profile of each Bis-atClpS2-V1 binder (PS609, PS610, and PS611) was evaluated by biolayer interferometry as described above. The monovalent atClpS2-V1 was run as a control. Measurements with each binder were carried out for the amino acids F, Y, and W, along with I, L, M, and V as negative controls. All peptides contained a penultimate alanine (A). Response curves for the tandem binders PS609, PS610, and PS611 are shown in FIGS. 35B, 35C, and 35D, respectively.
The multivalent binder PS612 is a polypeptide that contains tandem copies of two different ClpS protein monomers (atClpS2-V1 and PS372). The amino acid binding profile of PS612 was evaluated by biolayer interferometry as described above. The monovalent binders atClpS2-V1 and PS372 were separately run as controls.
The multivalent binder PS614 is a polypeptide that contains two copies of the ClpS binder PS372 oriented in tandem. The amino acid binding profile of PS614 was evaluated by biolayer interferometry as described above.
The multivalent binders PS637, PS638, and PS639 are polypeptides that each contain two copies of the ClpS binder PS557 oriented in tandem and separated by Linker 1, Linker 2, and Linker 3, respectively. The amino acid binding profiles of each binder was evaluated by biolayer interferometry as described above.

[6] = system: amino acid at a terminal position of a polypeptide; assay: Amino acid binding preference of recognition proteins (Tables 1 and 2); settings: Table 1, ClpS proteins; amino acid identity at a terminal position of a polypeptide; inferred from literature and/or demonstrated by the inventors
Source text: It should be appreciated that these sequences and other examples described herein are meant to be non-limiting, and recognition molecules in accordance with the application can include any homologs, variants thereof, or fragments thereof minimally containing domains or subdomains responsible for peptide recognition.

[7] = system: N-terminal amino acids of peptides; assay: Single-molecule terminal amino acid recognition by labeled recognition molecule (dwell time analysis); type: binding
Experimental: An adaptor protein involved in proteolytic pathways was identified as a potential candidate for use as a labeled recognition molecule for detecting N-terminal aromatic residues. The adaptor protein, ClpS2 from an α-proteobacterium (A. tumefaciens), was expressed and labeled at an exposed cysteine residue. […] The exposed cysteine residue was labeled with a rhodamine dye (ATTO 532).
Peptides having different N-terminal aromatic residues were prepared to test whether the labeled ClpS2 was capable of N-terminal amino acid discrimination at the single molecule level.
FIG. 19C is a plot showing discriminant pulse durations (time duration of signal peaks) among the three N-terminal residues when reversibly bound by labeled ClpS2. FIG. 19D is a plot showing discriminant interpulse durations (time duration between signal pulses) among the three N-terminal residues. […] Mean pulse duration for the different N-terminal residues is visualized by histograms (A)-(B) and layered histogram (C).

Molecule | FA koff [3] | N-terminal amino acids bound (biolayer interferometry) [5] | further results
B1 |  |  | Binding Pref. [1]: phospho-Y; peptide binding (single-molecule signal traces) ([2]; negative controls: N-terminal unmodified tyrosine (Y), YY, N-terminal phospho-serine): binding was not detected; peptide binding (single-molecule signal traces) ([2]; peptide containing N-terminal phospho-tyrosine): Peptide binding by the immobilized protein was detected
B2 | 0.6774 s⁻¹ |  | 
B3 |  |  | LA koff [4]: 0.15 s⁻¹
B4 |  | N-terminal I, L, and V | 
B5 |  | N-terminal I, L, and V | 
B6 |  | N-terminal I, L, and V | 
B7 | 0.7674 s⁻¹ |  | 
B8 | 1.2655 s⁻¹ |  | 
B9 |  | N-terminal I, L, and V | 
B10 |  |  | Binding Pref. [6]: F, W, Y, L; recognition of terminal amino acids (dwell time analysis) [7]: leucine recognition
